# Measured values from the supplement of paper PMC9170038.
# Tested on: MS2 coat protein
# Experiment: apparent KD of MS2 coat protein; designed switch direction (-1 OFF switch, 1 ON switch): 1; higher = weaker reporter binding
# Procedure, shortened: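 Designed RNA switches sharing common flanks were transcribed on Illumina chips by stalled E. coli RNA polymerase. They were titrated with SNAP-549-labelled MS2 coat protein, from 0.7 or 1.5 nM doubling to 3 µM, in Tris-HCl pH 7.5 buffer with KCl, MgCl2, BSA, DTT, tRNA and Tween-20. Titrations ran without input, with 200 uM small-molecule ligand, or with an oligonucleotide input. The apparent KD of each design is the median over its clusters, after curve-fitting of normalised cluster fluorescence.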
# [1] = input ligand: microRNA oligo, concentration not stated
# [2] = Eterna round: R95, input ligand: FMN 200 uM
# [3] = Eterna round: R95, input ligand: microRNA oligo, concentration not stated
# [4] = Eterna round: R95, input ligand: none
sequence,measurement,setting,value
"AUAAAACAUGAGGAUCACCCAUGUCAACAAAGUCGAGGAUAUGGGCAAAGAAAAUAAGAACCAGAAGGCGAAUAAU [salish99_ss1_r3_056] (Eterna round: R96, puzzle: Same State 1)",apparent KD of MS2 coat protein,[1],245 nM
"UGGUACAUGGGAGGAUAUGGAGUGAUGACAUGAGGAUCACCCAUGUUAAAUAUGCCGAGAGGCAACUAGAAGGCCCAUGUACCU [JL SSNG1 3.98] (Eterna round: R96, puzzle: Same State NG 2)",apparent KD of MS2 coat protein,input ligand: FMN 200 uM,22.3 nM
same,apparent KD of MS2 coat protein,[1],298 nM
same,apparent KD of MS2 coat protein,input ligand: none,418 nM
"UGUUGUAUUACAGGAUAUCUAGUAUUUUUAAUUAGAGAAGGGUAUUCACAUGAGGAUCACCCAUGUAUAUACGAGGAAGUUGUG [JMF's solution 48] (Eterna round: R96, puzzle: Same State NG 1)",apparent KD of MS2 coat protein,[1],34 nM
"CCGGUAAAUGGAGGAUAUGGAGCCUUAUUGGCUCCAGAAGGCUAACAUGAGGAUCACCCAUGUAUACCGGCGGUCAAUAGACCG [Eli NG1ss - 64] (Eterna round: R96, puzzle: Same State NG 1)",apparent KD of MS2 coat protein,input ligand: FMN 200 uM,11 nM
same,apparent KD of MS2 coat protein,[1],16.3 nM
same,apparent KD of MS2 coat protein,input ligand: none,21.8 nM
"GUAAUAAUGUAAGGAUAUACAUGAGGAUUUCUCGUAGAAGGUACAAGACAUGAGGAUCACCCAUGUGUCGCUCCGUAGAGCGUA [Mat - Same State NG 1 - JL mod - D15] (Eterna round: R96, puzzle: Same State NG 1)",apparent KD of MS2 coat protein,input ligand: FMN 200 uM,297 nM
same,apparent KD of MS2 coat protein,[1],168 nM
same,apparent KD of MS2 coat protein,input ligand: none,448 nM
UUAAGCCGCGGGCAGGAUAUGUAUUAAAAUACAUGAGGAUCACCCAUGUGCAGGUGUAACACCUGACAGAAGGGCCAAUCGCGGC [Soteed - 5] (puzzle: Same State 2),apparent KD of MS2 coat protein,[2],21.2 nM
same,apparent KD of MS2 coat protein,[3],116 nM
same,apparent KD of MS2 coat protein,[4],229 nM
"GGCUGCGUUGUGAAGGAUAUCCGCGUCUGGACAUGAGGAUCACCCAUGUAUGCUUGGAUCGUGCCGGAGAAGGUCACGAAUGAUU [JR_SS002_Sub1213] (Eterna round: R96, puzzle: Same State 2)",apparent KD of MS2 coat protein,input ligand: FMN 200 uM,14 nM
same,apparent KD of MS2 coat protein,[1],29.4 nM
same,apparent KD of MS2 coat protein,input ligand: none,55.2 nM
"GGCCUGGGUCAAGGAUAUGCUACCGUUUCGGUAGCAGAAGGUGAUCACAUGAGGAUCACCCAUGUUUACGCGAAGACGCGCGCC (Eterna round: R96, puzzle: Same State NG 1)",apparent KD of MS2 coat protein,input ligand: FMN 200 uM,526 nM
same,apparent KD of MS2 coat protein,[1],59.3 nM
same,apparent KD of MS2 coat protein,input ligand: none,405 nM
"GCUCGGCUGAUGGCCUACAUGAGGAUCACCCAUGUGAGUGGGCAGGAUAUCUAGAUUCAGGAUGUAGAGAAGGGCCUGCCGAGC [SameState NG3 #39] (Eterna round: R96, puzzle: Same State NG 3)",apparent KD of MS2 coat protein,input ligand: FMN 200 uM,1500 nM
same,apparent KD of MS2 coat protein,[1],331 nM
same,apparent KD of MS2 coat protein,input ligand: none,1190 nM
"GCUACCAUUGAAGCCAACAUGAGGAUCACCCAUGUAUGUUGGCAGGAUAUCGAUUGCUUUGCGAUCGAGAAGGGCUAAGGUAGC [JL SSNG3 1.29] (Eterna round: R96, puzzle: Same State NG 3)",apparent KD of MS2 coat protein,input ligand: FMN 200 uM,120 nM
same,apparent KD of MS2 coat protein,[1],153 nM
same,apparent KD of MS2 coat protein,input ligand: none,171 nM
"GUGGUCAAUCAAGGAUAUGGAGCCUUAUUGGCUCCAGAAGGUGGGACAUGAGGAUCACCCAUGUGGCAGUGGUAAAAUGACCAC [Fiskers NG1ss - 37] (Eterna round: R96, puzzle: Same State NG 1)",apparent KD of MS2 coat protein,input ligand: FMN 200 uM,35.6 nM
same,apparent KD of MS2 coat protein,[1],56.8 nM
same,apparent KD of MS2 coat protein,input ligand: none,63.4 nM
"UAUUUAAUCAUAGGAUAUAGUGUGAAAUUUGGACUAGAAGGAUGUAACAUGAGGAUCACCCAUGUGGUAAGUGGGACACAUUGA [JR_SSNG1_Sub097] (Eterna round: R96, puzzle: Same State NG 1)",apparent KD of MS2 coat protein,[1],86.7 nM
AAGUAACAUGAGGAUCACCCAUGUGAGGUGAGCGUAGGAUAUCGAGGAGGUAGGGUAGGUCGAGAAGGACGAGAAG [JR_SS1_Sub095] (puzzle: Same State 1),apparent KD of MS2 coat protein,[2],323 nM
same,apparent KD of MS2 coat protein,[3],210 nM
same,apparent KD of MS2 coat protein,[4],700 nM
